Results from paper PMC9482650, “Quantitative fragmentomics allow affinity mapping of interactomes” (Nature Communications, 2022).

T1: APBA1_1, Q02410
T1 sequence (Q02410 651-752, limits assumed, looked up): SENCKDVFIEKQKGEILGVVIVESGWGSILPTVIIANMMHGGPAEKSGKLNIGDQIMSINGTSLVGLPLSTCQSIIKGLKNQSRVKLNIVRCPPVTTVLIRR

T2: DFNB31_2, Q9P202
T2 sequence (Q9P202 274-371, limits assumed, looked up): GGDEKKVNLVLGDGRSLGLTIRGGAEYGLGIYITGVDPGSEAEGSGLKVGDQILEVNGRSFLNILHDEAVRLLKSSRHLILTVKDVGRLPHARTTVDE

T3: DVL3, Q92997
T3 sequence (Q92997 244-331, limits assumed, looked up): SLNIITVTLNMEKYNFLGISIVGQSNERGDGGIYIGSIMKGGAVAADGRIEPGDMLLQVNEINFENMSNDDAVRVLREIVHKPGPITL

T4: FRMPD1, Q5SYB0
T4 sequence (Q5SYB0 52-145, limits assumed, looked up): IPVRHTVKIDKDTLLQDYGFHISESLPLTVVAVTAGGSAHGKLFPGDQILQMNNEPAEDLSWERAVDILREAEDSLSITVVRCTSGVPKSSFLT

T5: GRIP1_3, Q9Y3R0
T5 sequence (Q9Y3R0 247-346, limits assumed, looked up): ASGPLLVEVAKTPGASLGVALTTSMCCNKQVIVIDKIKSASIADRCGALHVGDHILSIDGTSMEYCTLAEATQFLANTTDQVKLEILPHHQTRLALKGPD

T6: MPDZ_12, O75970
T6 sequence (O75970 1857-1958, limits assumed, looked up): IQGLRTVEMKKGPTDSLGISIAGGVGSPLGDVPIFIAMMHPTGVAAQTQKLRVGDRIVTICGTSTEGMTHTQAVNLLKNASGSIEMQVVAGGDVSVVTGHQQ

T7: PCLO, Q9Y6V0
T7 sequence (Q9Y6V0 4491-4600, limits assumed, looked up): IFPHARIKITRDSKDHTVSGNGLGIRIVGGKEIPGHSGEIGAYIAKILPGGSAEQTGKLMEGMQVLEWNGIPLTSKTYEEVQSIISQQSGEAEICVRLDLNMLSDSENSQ

T8: PDZD2_2, O15018
T8 sequence (O15018 329-429, limits assumed, looked up): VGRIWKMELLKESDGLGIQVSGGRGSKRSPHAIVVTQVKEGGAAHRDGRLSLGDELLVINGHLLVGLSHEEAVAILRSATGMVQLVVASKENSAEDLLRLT

T9: PDZRN3_1, Q9UPQ7
T9 sequence (Q9UPQ7 244-349, limits assumed, looked up): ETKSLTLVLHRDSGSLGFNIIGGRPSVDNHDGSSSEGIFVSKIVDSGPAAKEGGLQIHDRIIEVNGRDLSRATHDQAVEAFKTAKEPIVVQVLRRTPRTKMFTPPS

T10: PTPN13_1, Q12923
T10 sequence (Q12923 1088-1188, limits assumed, looked up): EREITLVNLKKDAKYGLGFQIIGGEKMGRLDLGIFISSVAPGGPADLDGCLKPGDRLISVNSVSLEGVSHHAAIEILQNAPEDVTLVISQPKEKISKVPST

T11: SHANK1, Q9Y566
T11 sequence (Q9Y566 658-767, limits assumed, looked up): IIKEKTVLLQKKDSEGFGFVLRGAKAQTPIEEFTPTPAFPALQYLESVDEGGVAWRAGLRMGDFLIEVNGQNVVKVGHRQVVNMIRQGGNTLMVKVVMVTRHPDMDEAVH


Key:
Test in all cases: holdup assay
Set-up in all cases: key: below the threshold = too weak to quantify, mostly under pKd 3.1 to 4
Conditions in all cases: plain residues with an end cap or a label only (N-terminal biotin on a linker: ttds)
[1] = target: T1, APBA1_1, Q02410
[2] = target: T2, DFNB31_2, Q9P202
[3] = target: DLG2_2, Q15700
[4] = target: T3, DVL3, Q92997
[5] = target: T4, FRMPD1, Q5SYB0
[6] = target: FRMPD2_3, Q68DX3
[7] = target: FRMPD3, Q5JV73
[8] = target: T5, GRIP1_3, Q9Y3R0
[9] = target: IL16_4, Q14005
[10] = target: Inadl_1, Q8NI35
[11] = target: Inadl_3, Q8NI35
[12] = target: Inadl_5, Q8NI35
[13] = target: LNX1_2, Q8TBB1
[14] = target: LNX1_3, Q8TBB1
[15] = target: MAGI2_2, Q86UL8
[16] = target: MAGI2_6, Q86UL8
[17] = target: T6, MPDZ_12, O75970
[18] = target: NHERF4_1, Q86UT5-2
[19] = target: NHERF4_4, Q86UT5
[20] = target: NOS1, P29475
[21] = target: T7, PCLO, Q9Y6V0
[22] = target: T8, PDZD2_2, O15018
[23] = target: T9, PDZRN3_1, Q9UPQ7
[24] = target: T10, PTPN13_1, Q12923
[25] = target: T11, SHANK1, Q9Y566

Sequence of MAGI2_6, Q86UL8 (Q86UL8 1141-1229): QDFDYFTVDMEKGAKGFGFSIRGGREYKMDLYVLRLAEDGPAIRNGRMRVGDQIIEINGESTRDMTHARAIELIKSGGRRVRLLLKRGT
Sequence of FRMPD2_3, Q68DX3 (Q68DX3 1073-1166): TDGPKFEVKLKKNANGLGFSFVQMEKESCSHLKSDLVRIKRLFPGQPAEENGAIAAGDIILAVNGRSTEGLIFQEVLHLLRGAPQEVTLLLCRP
Sequence of MAGI2_2, Q86UL8 (Q86UL8 410-522): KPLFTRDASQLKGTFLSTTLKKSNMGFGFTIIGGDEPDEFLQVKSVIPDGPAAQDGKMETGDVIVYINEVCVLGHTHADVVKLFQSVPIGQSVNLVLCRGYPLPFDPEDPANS
Sequence of Inadl_3, Q8NI35 (Q8NI35 359-469): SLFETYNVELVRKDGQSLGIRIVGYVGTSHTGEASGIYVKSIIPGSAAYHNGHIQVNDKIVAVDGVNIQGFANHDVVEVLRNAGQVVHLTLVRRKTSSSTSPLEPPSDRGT
Sequence of IL16_4, Q14005 (Q14005 1229-1329): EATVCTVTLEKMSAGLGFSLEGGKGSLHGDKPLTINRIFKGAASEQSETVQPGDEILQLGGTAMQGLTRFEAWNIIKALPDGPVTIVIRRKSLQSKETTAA
Sequence of FRMPD3, Q5JV73 (Q5JV73 12-100): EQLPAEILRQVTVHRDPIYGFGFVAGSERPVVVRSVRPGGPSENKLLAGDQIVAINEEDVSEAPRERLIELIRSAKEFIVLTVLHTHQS
Sequence of DLG2_2, Q15700 (Q15700 189-283): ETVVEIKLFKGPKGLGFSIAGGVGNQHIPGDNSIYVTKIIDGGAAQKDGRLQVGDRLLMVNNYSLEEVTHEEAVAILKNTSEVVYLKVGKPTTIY
Sequence of LNX1_2, Q8TBB1 (Q8TBB1 371-470): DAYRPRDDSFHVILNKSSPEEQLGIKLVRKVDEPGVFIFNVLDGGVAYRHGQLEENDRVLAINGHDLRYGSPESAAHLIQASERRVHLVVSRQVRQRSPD
Sequence of NHERF4_1, Q86UT5-2 (Q86UT5 other isoform, or with tags, fused parts or gaps): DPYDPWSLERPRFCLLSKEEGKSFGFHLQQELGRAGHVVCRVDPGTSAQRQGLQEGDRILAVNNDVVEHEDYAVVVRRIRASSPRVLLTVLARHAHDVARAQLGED
Sequence of Inadl_1, Q8NI35 (Q8NI35 113-229): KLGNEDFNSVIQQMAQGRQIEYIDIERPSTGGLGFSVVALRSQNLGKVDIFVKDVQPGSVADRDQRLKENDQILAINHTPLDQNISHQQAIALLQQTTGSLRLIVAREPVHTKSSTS
Sequence of NOS1, P29475 (P29475 9-101): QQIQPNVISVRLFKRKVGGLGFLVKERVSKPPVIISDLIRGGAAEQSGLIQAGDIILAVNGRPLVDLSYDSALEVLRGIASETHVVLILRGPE
Sequence of Inadl_5, Q8NI35 (Q8NI35 673-780): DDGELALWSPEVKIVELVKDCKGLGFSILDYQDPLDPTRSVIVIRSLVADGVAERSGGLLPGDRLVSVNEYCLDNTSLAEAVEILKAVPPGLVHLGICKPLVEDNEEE
Sequence of NHERF4_4, Q86UT5 (Q86UT5 464-550): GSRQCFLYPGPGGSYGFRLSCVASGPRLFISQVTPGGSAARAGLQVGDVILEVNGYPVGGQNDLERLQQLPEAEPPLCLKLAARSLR
Sequence of LNX1_3, Q8TBB1 (Q8TBB1 500-596): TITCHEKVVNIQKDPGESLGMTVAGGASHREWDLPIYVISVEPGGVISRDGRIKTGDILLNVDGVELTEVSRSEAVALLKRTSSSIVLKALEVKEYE

Row | pKd [1] | pKd [2] | pKd [3] | pKd [4] | pKd [5] | pKd [6] | pKd [7] | pKd [8] | pKd [9] | pKd [10] | pKd [11] | pKd [12] | pKd [13] | pKd [14] | pKd [15] | pKd [16] | pKd [17] | pKd [18] | pKd [19] | pKd [20] | Binder | other results
1 | below the threshold | below the threshold | 4.15 | below the threshold | below the threshold | below the threshold | 3.6 | below the threshold | below the threshold | 3.53 | 4 | below the threshold | below the threshold | below the threshold | 4.13 | 4.53 | below the threshold | 4.61 | 4.24 | 4.04 | STLTIFETAL [ABCC4, O15439] | pKd [21]: below the threshold; pKd [22]: 3.65; pKd [23]: 5.46; pKd [24]: below the threshold; pKd [25]: 5.1
2 | below the threshold | below the threshold | 4.58 | below the threshold | below the threshold | below the threshold | below the threshold | below the threshold | below the threshold | below the threshold | below the threshold | below the threshold | below the threshold | below the threshold | 4.47 | 4.05 | below the threshold | below the threshold | below the threshold | 3.75 | VLRLQSETSV [VANGL1, Q8TAA9] | pKd [21]: below the threshold; pKd [22]: 4.12; pKd [23]: 4.4; pKd [24]: below the threshold; pKd [25]: 3.77
3 | below the threshold | below the threshold | 3.61 | below the threshold | below the threshold | below the threshold | below the threshold | below the threshold | below the threshold | below the threshold | below the threshold | below the threshold | 3.52 | below the threshold | below the threshold | 4.36 | below the threshold | 3.73 | 3.47 | 3.75 | QSARYRDTEL [TJP2, Q9UDY2] | pKd [21]: below the threshold; pKd [22]: below the threshold; pKd [23]: 4.67; pKd [24]: below the threshold; pKd [25]: 3.74
